Test results reported in PMC6980713.

Target: T1, HMCES SRAP domain (SRAPd) (Homo sapiens, UniProt Q96FZ2 1-270)
T1 sequence: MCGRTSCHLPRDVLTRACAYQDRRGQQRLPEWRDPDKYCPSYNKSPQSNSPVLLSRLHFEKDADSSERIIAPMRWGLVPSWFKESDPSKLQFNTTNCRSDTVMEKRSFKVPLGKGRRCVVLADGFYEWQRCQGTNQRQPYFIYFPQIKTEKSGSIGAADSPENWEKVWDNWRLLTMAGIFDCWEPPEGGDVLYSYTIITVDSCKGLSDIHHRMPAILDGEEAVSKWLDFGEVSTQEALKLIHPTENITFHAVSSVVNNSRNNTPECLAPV
Test: X-ray crystallography

B1: P5nt palindromic DNA (dsDNA)
DNA 1: CAACGTTGTTTTT
DNA 2: CAACGTTGTTTTT
Q: Does B1 bind?
A: Result: binds
